{"source": "patent US20200181245A1", "about": "(University of California, published 2020)", "binders": {"B1": {"name": "3RT single chain antibody (Clone 5F10) (scFv)", "scFv": "MEQVNLRESGAEVKKPGASVKVSCKVSGYTFTGYYMHWVRQAPGQGLEWMGWINSNSGATKYAQKFQGRVTMTRDTSITTAYMELSSLRSDDTAVYYCARGARDGYGFDYWGQGTLVTVLAGGGGSGGGGSGGGGSGAPSYVLTQPPSASGTPGQRVTISCSGGSSNIGSNAVSWYQQLPGTAPKLLIFTNDQRPSGVPDRFSGSKSGTSAPLAISGLQSEDESDYYCATWDDSLNGWVFGGGTKVTVRS", "notes": "Human scFv from a phage display library; It was expressed from mammalian scFV cassettes; also called 3RT scFV; 3RTau scFV"}}, "key": {"[1]": {"molecular_target": "T1, His and avidin-tagged 3RTau (352), recombinant full length 3R Tau protein (UniProt P10636-2 2-352, limits assumed)", "T1 construct": "mature; Used for phage panning, ELISA (immobilized) and immunoblot; The His and avidin tags are not described further; also called 3RT protein; 3-repeat Tau", "T1 sequence (P10636 other isoform, or with tags, fused parts or gaps limits assumed)": "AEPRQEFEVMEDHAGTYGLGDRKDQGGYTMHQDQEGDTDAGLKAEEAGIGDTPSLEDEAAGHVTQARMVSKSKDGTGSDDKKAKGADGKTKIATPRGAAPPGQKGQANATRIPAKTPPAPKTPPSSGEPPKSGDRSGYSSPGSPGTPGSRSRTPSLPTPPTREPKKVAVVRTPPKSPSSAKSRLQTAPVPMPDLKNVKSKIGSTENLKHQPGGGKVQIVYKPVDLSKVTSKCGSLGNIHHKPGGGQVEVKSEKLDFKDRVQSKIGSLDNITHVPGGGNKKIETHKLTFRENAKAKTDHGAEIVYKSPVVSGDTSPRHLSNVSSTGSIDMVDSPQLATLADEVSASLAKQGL", "test": "ELISA and immunoblot"}, "[2]": {"molecular_target": "T2, tau352 (human tau isoform 352, 15N-labelled, His tag removed by TEV cleavage) (human, UniProt P10636-2 2-352)", "T2 construct": "mature; Uniformly 15N-labelled for NMR", "T2 sequence (P10636 other isoform, or with tags, fused parts or gaps)": "as the sequence (P10636 other isoform, or with tags, fused parts or gaps limits assumed) above", "test": "2D 1H-15N HSQC NMR, about 1:1 molar ratio", "experimental": "The interaction between scFv and tau352 was further studied by NMR spectroscopy. For this purpose, tau352 and 3RT antibody were recombinantly expressed in E. coli and HEK293 cells, respectively. 2D ¹H-¹⁵N heteronuclear single quantum coherence (HSQC) spectra were recorded on tau352 in absence and presence of 3RT antibody (FIG. 10A). The HSQC of tau352 has a narrow chemical shift dispersion indicative of an intrinsically disordered protein (FIG. 10A).\nNMR experiments were recorded on a Bruker Avance 800 MHz spectrometer with 5% D₂O as lock solvent at 25° C. The 2D ¹H-¹⁵N HSQC experiments were recorded on a […] ¹⁵N labeled tau352 sample, for the interaction measurement an approximate 1:1 molar ratio between tau352 and scFv was used. For the 2D ¹⁵N HSQC, 512 data points were recorded in the indirect dimension with 128 scans per point for free tau352 and scFv-bound tau352."}}}
{"binder": "B1", "values": [{"measurement": "binding result", "setting": "[1]", "result": "binds"}, {"measurement": "binding result", "setting": "[2]", "result": "binds"}]}
